# Results taken from the RNAGym collection of RNA variant scans (doi:10.1073/pnas.2313332121).
# B1: TPR t1 (parent)
# chain: GACCAAUCUGCCCUCAGAGCUCGAGAACAUCUUCGGAUGCAGAGGAGGCAGGCUUCGGUGGCGCGAUAGCGCCAACGUCCUCAACCUCCAAUGCAUCCCACCACAUGAUGAUGCCUGAAGAGCCUUGGUUUUUUG
# Variants of: B1
# Assay: polymerase ribozyme fitness, log enrichment relative to wild type (log ratio); higher = more active; in vitro selection for triplet polymerase activity
# How it was run: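 Streptavidin-bead capture of gel-excised extended constructs, followed by RT-PCR, closed a single triplicate in vitro selection round. That round began by annealing PCR-built, transcribed mutant libraries of each subunit of a heterodimeric triplet polymerase ribozyme with a biotinylated primer, the partner subunit and triplets, then incubating them frozen at −7 °C. After Illumina sequencing of inputs and outputs, genotypes needed ≥10 input reads and ≥1 read per output. Fitness is the base-2 logarithm of genotype enrichment over wild-type enrichment, using inverse-variance-weighted replicate averages.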
row,Variant,polymerase ribozyme fitness (log ratio)
1,G61A G69C U116C,-4.59
2,U59G G77U G117A,-1.91
3,G60U U87G U129G,-0.951
4,G61U A66C,-3.18
5,C62A C99U C124A,-4.32
6,G60A C70U C102A C115A,-3.29
7,G58U C104U A105U G110A C124U U133G,-7.29
8,U59G C85U C115A,-0.695
9,G60C A74U C88G,-2.91
10,U59G C73A C88A,-2.15
11,U59C G93A,-1.47
12,G58C G110C A121U,-4.05
13,G60A C99A A103C A111C,-6.52
14,G61U A91G G93A A105U G117U,-6.5
15,G60A G122A U132C,-0.379
16,G60A U96C A118G,-0.126
17,G61C U78A G93A U96A,-1.93
18,G61U C70G,-4.08
19,G61C C88U A90C G110U,-5.87
20,U59A G60A,0.122
21,G60C G61A C101A C123A U129A,-4.67
22,G60U C89G U96G U129A,-3.9
23,U59C U106G U112G,-2.31
24,U59A C89A,-1.85

row,Variant,polymerase ribozyme fitness (log ratio)
1,G58C U78G A90C A118U G127C,-2.89
2,G60U A68G,-3.02
3,G60C C88A U112A,-0.182
4,G60U A75U U87C,0.354
5,U59A C104U,0.251
6,G60C U131A,-1.69
7,G60A C88U G127A,-1.7
8,G61U C94U U112A C115G,-0.199
9,G61A A108U G120U,-6.8
10,G61C G117A,-2.2
11,U59C A91G U133G,-2.51
12,G60C C124U G135A,2.05
13,G58U C73U,-0.0574
14,G60A G77U,-0.312
15,G61A C64U,-1.86
16,G58C G93A C114U,-3.02
17,C62A G113C,-3.31
18,U59G C124U,1.25
19,G60A A74U U92A C104U U133A,-2.03
20,U59A C124A,1.62
21,G60A G93A,0.0256
22,G61A C88G C98G C123G,-6.3
23,G60U U130C,0.326
24,G61A U92C,-0.505

row,Variant,polymerase ribozyme fitness (log ratio)
1,G61C U78C U133A,-3.51
2,G61A C88U,-0.64
3,G61U G127C,-0.698
4,G60C C62U,-2.34
5,U59G C104A A105U G110A,-5.5
6,C62A C98U,-2.2
7,U59C U92G C114G U125G,-4.63
8,G60C A111G,-0.122
9,G61C U106C,-2.89
10,G60A G117U,-1.75
11,G60A G117C,-2.42
12,G60U A83U,-0.0168
13,G60U A83C,0.15
14,C62A G120A U133A,-0.165
15,G61C A66U,-0.911
16,G60A C82A A95G,0.0608
17,C62A G127A,-2.22
18,C62A G127C,-1.29
19,G60C C86U U106G G120A,-2.2
20,G61A G107A,-3.6
21,G61A A111U U116C,-4.5
22,U59A C89U C124A U125A,1.78
23,G60C C123G,1.61
24,U59A G63C C82A G127A,-2.72

row,Variant,polymerase ribozyme fitness (log ratio)
1,G61U C82G C94U,-0.714
2,G60A C94A G128C,-3.09
3,G61U A103G,-4.75
4,G61C A83U G113C G120U U132A,-4.78
5,G58C U96G C104U,-0.405
6,G60C A74U U81G C115A,-3.12
7,G61A C72A,-0.462
8,G61U A121U,1.48
9,G61U G110C,-2.85
10,G61U G110U,-0.117
11,G61A G71U,-1.6
12,G61U C94G,-0.934
13,U59A C123G G127A,0.53
14,G60C A83C C115U,-1.05
15,G61U C99A C115A C124A,-4.46
16,G61A G69A,-4.21
17,G60U G63A C97A C99A A111U G122U U130A,-6.95
18,G60U U87A,0.377
19,U59G G60A C70G C115A A121C,-4.99
20,C62A A118C,-2.96
21,G60A C88U G120A G122U,0.196
22,G61U G135U,-1.65
23,G60C U96A C101A A119U,-4.66
24,G60C U130A,0.137

row,Variant,polymerase ribozyme fitness (log ratio)
1,G61U U78C U116A,-2.17
2,C62A C82A,-0.246
3,U59G A111C,0.213
4,G61C C64G A111C,-6.11
5,G58U A103C A121G,-4.29
6,G61A C104A,-1.95
7,G60U C82G,-1.12
8,G61U U112C,0.845
9,G60U A100C,-1.26
10,G61C C101G U112C,-2.46
11,C62A C86A,-2.26
12,G60U C79G C114U,-4.12
13,G61A C88G C104U C123G,1.29
14,G60C G107A,-5.47
15,G60C G107U,-4.16
16,G60U C101A,-0.256
17,C62A A91C C98G A111C C115U A118U G122A U126G,-7.7
18,G60A C101U,-0.265
19,U59A C114A,-1.7
20,G60U C102U,-1.09
21,G61A C115A U129A U132A,-3.87
22,G60C C99U,-4.01
23,G58U G60A U87A A103U,-5.31
24,U59A U81A A119U,-0.551

row,Variant,polymerase ribozyme fitness (log ratio)
1,U59C U129C,-1.12
2,U59C C102U C114G,-5.47
3,G61A C64U C72U A91U,-1.32
4,G61U U81A C82U A119G G122U U125A U129C,-1.8
5,G61A C124G,1.77
6,G61A C79A,-2.09
7,G60U U78C,-0.915
8,G60C C86U U106A,-0.567
9,G61C G122A,-2.5
10,G60C G110C,-4.39
11,G61C C88U,-1.5
12,U59A C82A G93C,-0.829
13,G60A G120C,0.892
14,G61A G128C,-1.93
15,G60A C79U U96A C115U C123G U132A,-1.19
16,G61A C85G,0.134
17,U59C A84G,-1.4
18,G61C C79U G117A G128A,-4.76
19,G61C A74U,-4.43
20,G61A U116G A121U,0.807
21,U59A G63A,-1.13
22,G60U G61C,-1.45
23,G61U U78C G113C U130G,-2.86
24,G61U C79A C104U,-0.851

row,Variant,polymerase ribozyme fitness (log ratio)
1,U59A G77U G117U,-2.87
2,G61A G113C G128U,-4.09
3,G60U A83C G117A,-2.26
4,U59C G122A C123U G128C,-0.638
5,U59G U130G,-0.605
6,G58U G61C A90G,0.258
7,U59A C82G A119U,-0.921
8,G61A A83G G113A U130G,-1.85
9,C62A C73G G117C U129G,-6.43
10,G61C U87A,-1.83
11,G61A A75U U96G A121G U129C G135U,0.938
12,G60U G93U A108G G120U,-3.22
13,C62A C72U,-1.74
14,C62A C72G,-2.09
15,C62A G77U,-1.77
16,C62A G77A,-2.78
17,G61C C123A,-0.578
18,G61A C104A G110A,-3.83
19,G61A U67A,-6.59
20,U59C C72U G117A,-1.45
21,G60U C85A A103U A111C,-4.74
22,G61U C79A,-0.952
23,G61A C80A,-3.47
